Tests used:
cMBD2 MBD (NMR) [1] = molecular target: T1, cMBD2 MBD (NMR) (UniProt Q5EFL0 2-70); assay: NMR (HSQC, Nz-exchange); SPR running buffer: 10 mM HEPES pH 7.4, 50 mM NaCl, 3 mM MgCl2, 0.1 mM EDTA, 1 mM DTT, 0.1% BSA, 0.005% polysorbate 20 (samples prepared at pH 6.5); temperature not given; NMR buffer not given (low salt, up to 100 mM NaCl in titration); conditions: protein: recombinant; tags: tags removed by thrombin; blunt
[2] = molecular target: Trx-His6-MBD4 MBD Y109F (SPR) (Homo sapiens, UniProt O95243 80-148, Y109F); assay: SPR; SPR running buffer: 10 mM HEPES pH 7.4, 50 mM NaCl, 3 mM MgCl2, 0.1 mM EDTA, 1 mM DTT, 0.1% BSA, 0.005% polysorbate 20 (samples prepared at pH 6.5); temperature not given; NMR buffer not given (low salt, up to 100 mM NaCl in titration); conditions: protein: recombinant, tags: N-terminal thioredoxin and His6 fusion, retained for SPR, label: 3' biotin on strand 1 (SPR only), blunt
cMBD2 MBD (NMR) [3] = molecular target: T1, cMBD2 MBD (NMR); assay: NMR (TROSY HSQC); fast exchange between sites; SPR running buffer: 10 mM HEPES pH 7.4, 50 mM NaCl, 3 mM MgCl2, 0.1 mM EDTA, 1 mM DTT, 0.1% BSA, 0.005% polysorbate 20 (samples prepared at pH 6.5); temperature not given; NMR buffer not given (low salt, up to 100 mM NaCl in titration); conditions: protein: recombinant; tags: tags removed by thrombin; blunt
cMBD2 MBD (NMR) [4] = molecular target: T1, cMBD2 MBD (NMR); assay: NMR (TROSY HSQC); slow to intermediate exchange between sites; SPR running buffer: 10 mM HEPES pH 7.4, 50 mM NaCl, 3 mM MgCl2, 0.1 mM EDTA, 1 mM DTT, 0.1% BSA, 0.005% polysorbate 20 (samples prepared at pH 6.5); temperature not given; NMR buffer not given (low salt, up to 100 mM NaCl in titration); conditions: protein: recombinant; tags: tags removed by thrombin; blunt
Trx-His6-MBD4 MBD (SPR) = Trx-His6-MBD4 MBD (SPR) (Homo sapiens, UniProt O95243 80-148); assay: SPR; SPR running buffer: 10 mM HEPES pH 7.4, 50 mM NaCl, 3 mM MgCl2, 0.1 mM EDTA, 1 mM DTT, 0.1% BSA, 0.005% polysorbate 20 (samples prepared at pH 6.5); temperature not given; NMR buffer not given (low salt, up to 100 mM NaCl in titration); conditions: protein: recombinant, tags: N-terminal thioredoxin and His6 fusion (modified pET32a), retained for SPR, label: 3' biotin on strand 1 (SPR only), blunt
[5] = one G:T mismatch (strand 1 G10, strand 2 T8)

T1 sequence (Q5EFL0 entry or part of it): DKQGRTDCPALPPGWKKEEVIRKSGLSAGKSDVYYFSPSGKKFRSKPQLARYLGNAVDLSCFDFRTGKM
Trx-His6-MBD4 MBD Y109F (SPR), sequence (O95243 80-148 Y109F): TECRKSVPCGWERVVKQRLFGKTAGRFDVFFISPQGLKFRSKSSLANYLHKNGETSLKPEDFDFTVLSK
Trx-His6-MBD4 MBD (SPR), sequence (O95243 80-148): as the sequence (O95243 80-148 Y109F) above, with F30Y counted along it

B1: mCpG (10 bp), wild-type (dsDNA)
DNA 1: GGATCGGCTC
DNA 2: GAGCCGATCC
modifications: 5-methyl-C at position 5 of both strands
cMBD2 MBD (NMR) [1]
  binding result: binds

B2: CpG (17 bp) (dsDNA)
DNA 1: GAGGCGCTCGGCGGCAG
DNA 2: CTGCCGCCGAGCGCCTC
[2]
  Kd: 19.6 ± 3.5 µM

B3: Inverted (10 bp) (dsDNA)
DNA 1: GGACCGACTC
DNA 2: GAGTCGGTCC
modifications: 5-methyl-C at position 5 of both strands
cMBD2 MBD (NMR) [1]
  binding result: binds

B4: Tandem (20 bp) (dsDNA)
DNA 1: GGATCGGCTCGGACCGACTC
DNA 2: GAGTCGGTCCGAGCCGATCC
modifications: 5-methyl-C at strand 1 positions 5 and 15 and strand 2 positions 5 and 15
cMBD2 MBD (NMR) [3]
  binding result: binds

B5: Tandem (30 bp) (dsDNA)
DNA 1: CACGGATCGGCTCCCCCGAGTCGGTCCCGC
DNA 2: GCGGGACCGACTCGGGGGAGCCGATCCGTG
modifications: 5-methyl-C at strand 1 positions 8 and 22 and strand 2 positions 8 and 22
cMBD2 MBD (NMR) [4]
  binding result: binds

B6: hmCpG (17 bp) (dsDNA)
DNA 1: GAGGCGCTCGGCGGCAG
DNA 2: CTGCCGCCGAGCGCCTC
modifications: 5-hydroxymethyl-C at strand 1 position 9 and strand 2 position 8
[2]
  Kd: 16 ± 3 µM

B7: mCpG (17 bp) (dsDNA)
DNA 1: GAGGCGCTCGGCGGCAG
DNA 2: CTGCCGCCGAGCGCCTC
modifications: 5-methyl-C at strand 1 position 9 and strand 2 position 8
Trx-His6-MBD4 MBD (SPR)
  Kd: 6.4 ± 1.5 µM
[2]
  Kd: 7.9 ± 1.6 µM

B8: mCpG/TpG mismatch (17 bp) (dsDNA)
DNA 1: GAGGCGCTCGGCGGCAG
DNA 2: CTGCCGCTGAGCGCCTC
modifications: 5-methyl-C at strand 1 position 9
Trx-His6-MBD4 MBD (SPR); [5]
  Kd: 11.5 ± 1.2 µM
[2]; [5]
  Kd: 14 ± 1.4 µM

— article PMC4176167, “Solution structure and intramolecular exchange of methyl-cytosine binding domain protein 4 (MBD4) on DNA suggests a mechanism to scan for mCpG/TpG mismatches”
